System: ScNsrR wild type, [4Fe-4S] holo (Streptomyces coelicolor)
Test: EMSA
Conditions: EMSA: 10 mM Tris, 54 mM KCl, 0.3% glycerol, 1.32 mM glutathione, pH 7.2, on ice ~10 min; 5% PAGE in 1x TBE

hmpA1 promoter probe showed a K half ([4Fe-4S] protein:DNA ratio) of under 2.
